Laboratory results: patent publication US20240310359A1

Biological target: SERCA1a, mouse (endogenous, differentiated skeletal muscle cells) (mouse) (UniProt Q8R429)
Assay: cell-based or functional assay

Chain of SERCA1a, mouse (endogenous, differentiated skeletal muscle cells) (mouse) (Q8R429 whole entry): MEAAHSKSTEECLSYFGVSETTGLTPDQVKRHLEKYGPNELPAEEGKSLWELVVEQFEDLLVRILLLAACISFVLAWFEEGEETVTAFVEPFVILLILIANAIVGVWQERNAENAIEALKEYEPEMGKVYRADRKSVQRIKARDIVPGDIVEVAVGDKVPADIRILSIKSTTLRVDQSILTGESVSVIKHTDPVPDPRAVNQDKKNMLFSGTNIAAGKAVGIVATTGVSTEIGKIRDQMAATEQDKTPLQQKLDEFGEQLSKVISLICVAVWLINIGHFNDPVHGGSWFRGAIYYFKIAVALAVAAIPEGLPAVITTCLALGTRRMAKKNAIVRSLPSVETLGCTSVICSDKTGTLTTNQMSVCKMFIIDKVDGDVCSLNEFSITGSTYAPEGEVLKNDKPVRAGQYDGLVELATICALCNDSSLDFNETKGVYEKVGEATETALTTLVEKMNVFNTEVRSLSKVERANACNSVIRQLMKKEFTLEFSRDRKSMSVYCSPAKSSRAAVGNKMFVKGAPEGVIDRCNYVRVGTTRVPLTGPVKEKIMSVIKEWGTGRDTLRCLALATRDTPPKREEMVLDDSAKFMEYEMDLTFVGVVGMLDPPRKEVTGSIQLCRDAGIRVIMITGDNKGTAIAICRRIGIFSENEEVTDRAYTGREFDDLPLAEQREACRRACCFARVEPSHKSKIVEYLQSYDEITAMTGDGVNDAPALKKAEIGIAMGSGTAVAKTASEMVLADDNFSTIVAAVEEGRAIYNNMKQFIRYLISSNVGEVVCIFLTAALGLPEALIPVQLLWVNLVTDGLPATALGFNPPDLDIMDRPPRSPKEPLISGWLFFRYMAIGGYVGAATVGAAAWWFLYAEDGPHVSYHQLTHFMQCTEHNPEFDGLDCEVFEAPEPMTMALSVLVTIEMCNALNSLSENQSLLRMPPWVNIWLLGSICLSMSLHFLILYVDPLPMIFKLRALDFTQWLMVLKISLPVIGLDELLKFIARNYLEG
Chain of NHL-Del (mutant of TRIM32 without NHL repeats, expressed from pEGFP-N1 in mouse differentiated skeletal muscle cells) (Q13049 1-361, stated change not applied): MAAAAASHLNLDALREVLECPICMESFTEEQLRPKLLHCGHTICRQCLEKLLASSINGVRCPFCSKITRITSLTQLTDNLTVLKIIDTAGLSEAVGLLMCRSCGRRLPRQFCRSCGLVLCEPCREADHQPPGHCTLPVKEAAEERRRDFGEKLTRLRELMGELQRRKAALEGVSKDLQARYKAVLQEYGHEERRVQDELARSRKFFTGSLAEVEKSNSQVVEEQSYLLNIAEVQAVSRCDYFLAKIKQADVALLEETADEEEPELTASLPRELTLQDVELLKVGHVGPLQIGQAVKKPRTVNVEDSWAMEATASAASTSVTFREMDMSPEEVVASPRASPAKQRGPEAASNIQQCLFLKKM
Chain of wild-type TRIM32 (expressed from pEGFP-N1 in mouse differentiated skeletal muscle cells) (from UniProt Q13049 1-653) (enzyme) (Q13049 whole entry): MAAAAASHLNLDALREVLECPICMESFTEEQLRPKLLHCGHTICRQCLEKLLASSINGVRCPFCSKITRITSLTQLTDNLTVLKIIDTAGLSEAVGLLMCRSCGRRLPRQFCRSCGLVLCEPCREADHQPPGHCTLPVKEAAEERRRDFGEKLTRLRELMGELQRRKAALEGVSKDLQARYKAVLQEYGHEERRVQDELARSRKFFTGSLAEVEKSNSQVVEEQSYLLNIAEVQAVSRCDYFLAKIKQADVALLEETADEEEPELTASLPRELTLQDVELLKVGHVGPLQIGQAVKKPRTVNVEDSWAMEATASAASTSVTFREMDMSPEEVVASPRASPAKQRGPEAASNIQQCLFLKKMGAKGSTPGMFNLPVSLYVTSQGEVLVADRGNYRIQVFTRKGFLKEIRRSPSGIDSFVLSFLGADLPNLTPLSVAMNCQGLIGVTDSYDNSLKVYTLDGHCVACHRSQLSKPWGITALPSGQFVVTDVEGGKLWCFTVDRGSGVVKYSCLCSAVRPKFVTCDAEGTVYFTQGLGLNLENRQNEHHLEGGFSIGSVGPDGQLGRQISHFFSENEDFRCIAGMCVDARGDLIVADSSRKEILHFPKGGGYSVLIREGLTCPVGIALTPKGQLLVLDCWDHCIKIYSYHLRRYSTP
Chain of wild-type TRIM32 (expressed from pEGFP-N1 in mouse differentiated skeletal muscle cells) (from UniProt Q13049 1-653) (Q13049 whole entry): as above

Row | Substance | KCl response (normalized ratio to vector control) | Releasable Ca^2+ level from SR (normalized ratio to vector control) | Caffeine response (normalized ratio to vector control)
1 | wild-type TRIM32 (expressed from pEGFP-N1 in mouse differentiated skeletal muscle cells) (from UniProt Q13049 1-653) (enzyme) | 1.27 | 1.48 | –
2 | wild-type TRIM32 (expressed from pEGFP-N1 in mouse differentiated skeletal muscle cells) (from UniProt Q13049 1-653) | – | – | 1.22
3 | NHL-Del (mutant of TRIM32 without NHL repeats, expressed from pEGFP-N1 in mouse differentiated skeletal muscle cells) (from UniProt Q13049 1-361) (enzyme) | 0.94 | 0.99 | 0.97
